Results published in paper PMC12421958, “Dual regulatory role of cyclic di-GMP via the DgcY/HhmR complex in salt response of Halomonas hydrothermalis Y2” (mBio, 2025).
Each block holds one molecule with its values, some of them ahead of it.

Assays:
[1] = biological target: DgcY_(202–406) (Halomonas hydrothermalis Y2); assay: MST; His-tagged protein labelled with Red-tris-NTA, ligand in twofold serial dilutions, PBS-T buffer, 25°C; no c-di-GMP
DgcY222–406 = biological target: T1, DgcY222–406; assay: microscale thermophoresis (MST); type: binding, Vreelandella hydrothermalis; conditions: 25 °C, PBS-T; without HhmR; His-tag protein labelled with RED-tris-NTA
T1 construct: gene dgcY; GGDEF domain 222-406 only, TM and helical (HD) regions removed; pET24a, E. coli BL21(DE3), His-tag

DgcY202–406 = biological target: T2, DgcY202–406; assay: microscale thermophoresis (MST); type: binding, Vreelandella hydrothermalis; conditions: 25 °C, PBS-T; without HhmR; His-tag protein labelled with RED-tris-NTA
T2 construct: gene dgcY; intracellular fragment 202-406 (helical domain 203-221 + GGDEF 222-406) of 406-residue protein, TM domain removed; pET24a, E. coli BL21(DE3), His-tag, labelled by RED-tris-NTA for MST

[2] = biological target: DgcY_(202–406) (Halomonas hydrothermalis Y2)
[3] = biological target: DgcY_(202–406) (Halomonas hydrothermalis Y2); remark: listed apart in the source
[4] = biological target: DgcY_(202–406) (Halomonas hydrothermalis Y2); assay: MST; as a3, buffer containing 15 µM c-di-GMP
[5] = biological target: DgcY_(202–406) (Halomonas hydrothermalis Y2); assay: MST; as a3, buffer containing 0.5 µM c-di-GMP
[6] = biological target: DgcY_(202–406) (Halomonas hydrothermalis Y2); assay: MST; as a3, buffer containing 2.5 µM c-di-GMP

Kd [1]: 0.053 µM
Molecule: HhmR_(90–305) (domain or fragment)

Molecule: Nc1nc2c(ncn2[C@@H]2O[C@@H]3COP(=O)(O)O[C@H]4[C@@H](O)[C@H](n5cnc6c(=O)[nH]c(N)nc65)O[C@@H]4COP(=O)(O)O[C@H]3[C@H]2O)c(=O)[nH]1 [c-di-GMP]
Kd (DgcY222–406): 1170 µM
Kd (DgcY202–406): 53.2 µM

Kd [1]: 0.571 µM
Molecule: HhmR_(90–305)^Q240D (domain or fragment)

c-di-GMP made by 10 µM DgcY202-406 with 15 µM HhmR, HPLC, 37°C, 2 to 8 h (with HhmR 9.47 µM at 3 h and 25.50 µM at 8 h; without HhmR 12.41 and 31.38 µM) [2]: 25.5 µM
c-di-GMP made by DgcY202-406 with HhmR and 15 µM added c-di-GMP, HPLC, 37°C, 8 h (38 µM without added c-di-GMP) [3]: 30 µM
Kd [4]: 0.0341 µM
Kd [5]: 0.105 µM
Kd [6]: 0.0905 µM
Kd [1]: 8.96 µM
Molecule: HhmR (natural protein)
